Experimental data from publication PMC6013494, “Dual recognition of H3K4me3 and H3K27me3 by a plant histone reader SHL” (Nature Communications, 2018).
Positions count from the first letter of the chain named. “Also recorded” adds a separate entry of the source. No end group written: not given here. Me3 = trimethyl-lysine; Me2 = dimethyl-lysine

T1: PtSHL + H3K4me3 (Populus trichocarpa, UniProt B9H0V2)
T1 sequence (B9H0V2 1-215): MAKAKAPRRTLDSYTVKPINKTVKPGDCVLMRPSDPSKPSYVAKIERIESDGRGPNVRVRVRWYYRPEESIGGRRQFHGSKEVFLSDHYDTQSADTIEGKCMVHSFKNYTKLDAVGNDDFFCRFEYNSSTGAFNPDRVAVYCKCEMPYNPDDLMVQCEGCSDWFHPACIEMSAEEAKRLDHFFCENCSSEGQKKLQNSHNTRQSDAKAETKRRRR

T2: H3K4me2 (Arabidopsis thaliana)
T2 chain: ARTK(Me2)QTARKSTGGKAY

T3: H3K4me1 (Arabidopsis thaliana)
T3 chain: ARTK(Me)QTARKSTGGKAY

T4: PtSHL Y148A (Populus trichocarpa)
T4 chain: T1 sequence (B9H0V2 1-215) with Y148A

T5: PtSHL Q156A (Populus trichocarpa)
T5 chain: T1 sequence (B9H0V2 1-215) with Q156A

B1: H3K27me2 peptide with an additional C-terminal tyrosine (ITC) (peptide)
chain: LATKAARK(Me2)SAPATGGVKY
B2: H3K27me1 peptide with an additional C-terminal tyrosine (ITC) (peptide)
chain: LATKAARK(Me)SAPATGGVKY
B3: SHL from Populus trichocarpa (PtSHL), wild type (natural protein)
chain: SMAKAKAPRRTLDSYTVKPINKTVKPGDCVLMRPSDPSKPSYVAKIERIESDGRGPNVRVRVRWYYRPEESIGGRRQFHGSKEVFLSDHYDTQSADTIEGKCMVHSFKNYTKLDAVGNDDFFCRFEYNSSTGAFNPDRVAVYCKCEMPYNPDDLMVQCEGCSDWFHPACIEMSAEEAKRLDHFFCENCSSEGQKKLQNSHNTRQSDAKAETKRRRR
B4: H3(1-15)K4me3 peptide with an additional C-terminal tyrosine (ITC) (peptide)
chain: ARTK(Me3)QTARKSTGGKAY

Assays:
[1] = target: Arabidopsis SHORT LIFE (AtSHL), full length, tag removed (Arabidopsis) (UniProt Q9FEN9); test: ITC; Microcal PEAQ-ITC, 20 °C; 100 mM NaCl, 20 mM Tris-HCl pH 8.0; protein titrated by peptide
Arabidopsis SHORT LIFE (AtSHL), full length, tag removed (Arabidopsis), sequence (Q9FEN9 whole entry): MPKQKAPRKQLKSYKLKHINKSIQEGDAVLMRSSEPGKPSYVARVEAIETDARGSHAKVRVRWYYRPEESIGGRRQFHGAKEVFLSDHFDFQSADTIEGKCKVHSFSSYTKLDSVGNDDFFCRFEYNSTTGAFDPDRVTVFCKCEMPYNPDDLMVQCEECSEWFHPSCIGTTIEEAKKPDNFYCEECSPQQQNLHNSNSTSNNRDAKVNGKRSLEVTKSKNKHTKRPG

[2] = target: SHL from Populus trichocarpa (PtSHL), wild type (Populus trichocarpa); test: as above
[3] = target: SHL from Populus trichocarpa (PtSHL), wild type (Populus trichocarpa); test: ITC; PtSHL pre-saturated with 2-fold excess H3(1-15)K4me3 peptide, titrated by H3(20-36)K27me3 peptide; 20 °C, 100 mM NaCl, 20 mM Tris-HCl pH 8.0
[4] = target: SHL from Populus trichocarpa (PtSHL), wild type (Populus trichocarpa); test: ITC; PtSHL pre-saturated with 2-fold excess H3(20-36)K27me3 peptide, titrated by H3(1-15)K4me3 peptide; 20 °C, 100 mM NaCl, 20 mM Tris-HCl pH 8.0
[5] = target: PtSHL Y41A; test: ITC, PtSHL Y41A; design: species or system Populus trichocarpa; conditions: 20 °C, pH 8.0, NDB, no detectable binding
Description: (§1) The full-length AtSHL was cloned into a pET-Sumo vector to fuse a hexahistidine-sumo tag to the target protein. The plasmids were transformed into Escherichia coli strain BL21(DE3) RIL (Stratagene). The protein expression was induced by adding IPTG to a final concentration of 0.2 mM upon the OD600 of cell culture reaching to 0.7, followed by overnight induction at 20 °C. The recombinant protein was purified using a HisTrap column (GE Healthcare). The hexahistidine-sumo tag was cleaved by ulp1 protease and removed by a second step HisTrap column. The AtSHL protein was further purified using a Superdex G200 column (GE Healcare). The PtSHL was cloned, expressed, and purified using the same strategy as AtSHL. All mutant versions of SHL were generated using a PCR based method and expressed and purified using the same protocol as wild type SHL protein. The peptides were purchased from the GL Biochem Company (Shanghai).
(§2) The interaction between SHL and histone peptides was monitored on a Microcal PEAQ-ITC instrument (Malvern) at 20 °C. An additional artificial tyrosine residue was added to the C-terminus of the peptide in the ITC experiment for accurately measuring the concentration of peptide by OD280. The protein was dialyzed against a buffer of 100 mM NaCl and 20 mM Tris-HCl, pH 8.0 for 3 h and the lyophilized peptides were dissolved into the same buffer. […]

[6] = target: PtSHL D90A; test: ITC, PtSHL D90A; design: species or system Populus trichocarpa; conditions: 20 °C, pH 8.0, NDB, no detectable binding
Description: as §1, §2

[7] = system: full-length AtSHL; test: Histone peptide pulldown, full-length AtSHL; assay type: binding, Arabidopsis thaliana; conditions: biotinylated histone peptides, 2 μg GST-tagged SHL, 50 mM Tris-HCl, pH 8.0, 300 mM NaCl, 3 h at 4 °C; anti-GST immunoblot
Description: The […] biotinylated histone peptides were first incubated with 62.5 μl magnetic streptavidin bead slurry (NEB) pre-washed with 1 ml peptide binding buffer (50 mM Tris-HCl, pH 8.0, 300 mM NaCl, 0.1% Nonidet P-40) for 1 h at 4 °C. The peptide-bound beads were washed twice with 1 ml of peptide binding buffer and then incubated with 2 μg GST-tagged SHL proteins in the peptide binding buffer for 3 h at 4 °C. After washing three times with binding buffer, protein-bead complex was boiled in 1XSDS loading buffer (50 mM Tris-HCl, pH 6.8, 2% sodium dodecyl sulfate, 0.01% bromophenol blue, 2 mM dithiothreitol and 2 mM β-mercaptoethanol), subjected to SDS-PAGE gel, and detected with an anti-GST antibody (CAB4169, Thermo Fisher, 1:3000). The raw images of the western blots can be found in Supplementary Fig. 6a.

[8] = system: full-length AtSHL; test: Histone peptide microarray, full-length AtSHL; assay type: binding, Arabidopsis thaliana; conditions: 500 nM GST-tagged SHL, 50 mM HEPES, pH 7.5, 50 mM NaCl, RT, 2 h; anti-GST, fluorescence 635 nm; average of three replicate spots
Description: Peptide microarray assay was performed as following a previous study. Specifically, the peptide array slide was blocked with blocking solution (1 × PBS, 0.05% Tween-20 pH 7.4, 1% BSA) at 4 °C overnight. After washing three times with 1 ml TTBS buffer (10 mM Tris-HCl, pH 7.5, 150 mM NaCl, 0.05% Tween-20), the slide was incubated with 500 nM GST-tagged recombinant SHL in 1 ml binding buffer (50 mM HEPES, pH 7.5, 50 mM NaCl, 5% glycerol, 0.4% BSA, 2 mM DTT) at RT for 2 h. The slide was then washed with TTBS three times and incubated with an anti-GST antibody (Thermo Fisher, CAB4169, 1:3000 dilution) in TBS with 1% BSA for 1 h at RT. After washing with TTBS three times, the slide was incubated with an anti-rabbit IRDye 650 secondary antibody (LI-COR, P/N 926-65020, 1:5000 dilution) in 1 ml TBS buffer with 1% BSA for 1 h. The slide was washed with TTBS three times, dried by centrifugation, and imaged at dual wavelengths of 532 and 635 nm on Axon GenePix 4000B (Molecular Devices). The laser power was set to 100%, with automatic gain adjustment (0.05% saturation tolerance) for dual photomultipliers. […] Signal intensities were quantified by GenePix Pro 6.1 software (Molecular Devices). […] For each peptide species, an average was calculated from three replicate spots. […]

[9] = target: PtSHL; test: ITC, PtSHL (wild type) with histone peptides; design: species or system Populus trichocarpa; conditions: Microcal PEAQ-ITC, 20 °C, 100 mM NaCl, 20 mM Tris-HCl, pH 8.0, peptide with additional C-terminal tyrosine, PtSHL WT, NDB, no detectable binding
Description: as §1, §2

[10] = target: PtSHL Y65A; test: ITC, PtSHL Y65A; design: species or system Populus trichocarpa; conditions: 20 °C, pH 8.0, NDB, no detectable binding
Description: as §1, §2

[11] = target: T1, PtSHL + H3K4me3; test: Competitive ITC, PtSHL pre-saturated with 2-fold excess H3(1-15)K4me3; conditions: ITC binding stoichiometry
Description: To further investigate the binding mechanism of H3K4me3 and H3K27me3 by the two domains of SHL, we performed competitive binding assays.
The interaction between SHL and histone peptides was monitored on a Microcal PEAQ-ITC instrument (Malvern) at 20 °C. An additional artificial tyrosine residue was added to the C-terminus of the peptide in the ITC experiment for accurately measuring the concentration of peptide by OD280. The protein was dialyzed against a buffer of 100 mM NaCl and 20 mM Tris-HCl, pH 8.0 for 3 h and the lyophilized peptides were dissolved into the same buffer. The titration data were fit using the program Origin 7.0.

[12] = target: PtSHL H88A; test: ITC, PtSHL H88A; design: species or system Populus trichocarpa; conditions: 20 °C, pH 8.0, NDB, no detectable binding
Description: as §1, §2

[13] = target: PtSHL W63A; test: ITC, PtSHL W63A; design: species or system Populus trichocarpa; conditions: 20 °C, pH 8.0, NDB, no detectable binding
Description: as §1, §2

[14] = target: B3; test: ITC
[15] = target: T2, H3K4me2; test: ITC
[16] = target: T3, H3K4me1; test: ITC
[17] = target: T4, PtSHL Y148A; test: ITC
[18] = target: T5, PtSHL Q156A; test: ITC

## H3K27me1 peptide with an additional C-terminal tyrosine (ITC)
[1]
  Kd: 78.3 µM

## H3(20-36)K27me3 peptide with an additional C-terminal tyrosine (ITC)
[1]
  Kd: 15.1 µM
[2]
  Kd: 21.3 µM
[3]
  Kd: 18.7 µM

## H3(1-35)K4me3K27me3 peptide with an additional C-terminal tyrosine (ITC)
[2]
  Kd: 16.9 µM
  stoichiometry N: 1.17

## H3(1-15)K4me3 peptide with an additional C-terminal tyrosine (ITC)
[2]
  Kd: 20.6 µM
[4]
  Kd: 27.6 µM

## CC(C)C[C@H](N)C(=O)N[C@@H](C)C(=O)N[C@H](C(=O)N[C@@H](CCCCN)C(=O)N[C@@H](C)C(=O)N[C@@H](C)C(=O)N[C@@H](CCCNC(=N)N)C(=O)N[C@@H](CCCC[N+](C)(C)C)C(=O)N[C@@H](CO)C(=O)N[C@@H](C)C(=O)N1CCC[C@H]1C(=O)N[C@@H](C)C(=O)N[C@H](C(=O)NCC(=O)NCC(=O)N[C@H](C(=O)N[C@@H](CCCCN)C(=O)N[C@@H](Cc1ccc(O)cc1)C(=O)O)C(C)C)[C@@H](C)O)[C@@H](C)O [H3K27me3]
[5]
  Kd: NDB and abolished
[6]
  Kd: NDB and abolished
[7]
  binding in histone peptide pulldown: capable of binding
[8]
  binding on histone peptide microarray: preferentially binds; also recorded: strong binding affinity
[9]
  Kd: 21.3 µM
[10]
  Kd: NDB and abolished
[11]
  N-value: 0.818
[12]
  Kd: NDB and abolished
[13]
  Kd: NDB and abolished

## H3K27me2 peptide with an additional C-terminal tyrosine (ITC)
[1]
  Kd: 30.8 µM

## B1
[14]
  Kd: 28.9 µM

## B2
[14]
  Kd: 58.1 µM

## B3
[15]
  Kd: 23.9 µM
[16]
  Kd: 67.1 µM

## B4
[17]
  Kd: 44 µM
[18]
  Kd: 66.1 µM
